Results from paper PMC11437077.

Target: mouse PD-1 wild type expressed on CHO cells (mouse) (UniProt Q02242)
Test: biomembrane force probe (BFP), force-ramp spectroscopy (rupture force); PD-L1- or PD-L2-coated glass bead on a micropipette-aspirated RBC against a CHO cell expressing PD-1; continuous retraction until bond rupture; nominal loading rate 1000 pN/s; BFP spring constant 0.3 pN/nm

Chain of mouse PD-L2 with C-terminal biotin (Q9WUL5 20-221): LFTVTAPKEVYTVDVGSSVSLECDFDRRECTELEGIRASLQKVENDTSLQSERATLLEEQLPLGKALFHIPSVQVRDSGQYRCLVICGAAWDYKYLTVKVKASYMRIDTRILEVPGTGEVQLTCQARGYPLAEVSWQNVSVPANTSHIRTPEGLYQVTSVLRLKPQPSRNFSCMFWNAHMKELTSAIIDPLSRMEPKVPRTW
Chain of mouse PD-1 wild type expressed on CHO cells (mouse) (Q02242 25-288): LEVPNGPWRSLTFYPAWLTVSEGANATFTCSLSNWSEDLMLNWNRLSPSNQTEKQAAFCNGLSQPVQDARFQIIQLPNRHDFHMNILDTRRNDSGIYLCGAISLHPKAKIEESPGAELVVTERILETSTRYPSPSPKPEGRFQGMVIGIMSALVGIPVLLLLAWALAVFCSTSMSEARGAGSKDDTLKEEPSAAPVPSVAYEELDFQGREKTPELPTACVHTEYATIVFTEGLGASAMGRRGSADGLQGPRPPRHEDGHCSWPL

## mouse PD-L2 with C-terminal biotin (from UniProt Q9WUL5 20-221) (ligand)
  F1/2 (force at which 50% of the bonds rupture): 12.1 pN
